According to article PMC2896269:
“And” between values parts separate entries of the source, which are not always exact repeats. Identical values can stand only once.

What was measured:
LRRTM2 = LRRTM2 (UniProt O43300); details: cited from earlier work
HA-LRRTM2 = HA-LRRTM2 (UniProt Q8BGA3); assay: immunostaining of cells or tissue
Chain of HA-LRRTM2 (Q8BGA3 34-515): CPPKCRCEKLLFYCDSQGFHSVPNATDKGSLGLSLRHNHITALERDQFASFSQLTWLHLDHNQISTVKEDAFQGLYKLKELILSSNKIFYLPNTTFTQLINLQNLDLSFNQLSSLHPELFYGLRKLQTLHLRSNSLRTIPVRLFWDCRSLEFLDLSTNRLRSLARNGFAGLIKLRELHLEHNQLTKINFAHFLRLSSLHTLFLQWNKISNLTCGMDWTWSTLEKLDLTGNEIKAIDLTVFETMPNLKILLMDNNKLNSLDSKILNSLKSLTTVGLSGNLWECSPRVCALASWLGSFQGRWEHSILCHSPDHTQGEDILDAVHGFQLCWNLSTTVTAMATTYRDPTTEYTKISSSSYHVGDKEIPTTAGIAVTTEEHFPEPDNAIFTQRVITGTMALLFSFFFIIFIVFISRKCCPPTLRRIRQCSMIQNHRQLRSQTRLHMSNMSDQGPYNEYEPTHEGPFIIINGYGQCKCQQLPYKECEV

Chain of Neurexin-1beta(-S4) (P58400 91-289): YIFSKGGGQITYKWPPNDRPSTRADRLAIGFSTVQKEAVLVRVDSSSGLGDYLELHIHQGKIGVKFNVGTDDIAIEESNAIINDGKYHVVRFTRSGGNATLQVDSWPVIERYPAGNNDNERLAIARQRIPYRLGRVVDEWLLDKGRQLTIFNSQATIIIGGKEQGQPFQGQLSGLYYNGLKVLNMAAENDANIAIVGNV
Chain of LRRTM2 (O43300 34-422): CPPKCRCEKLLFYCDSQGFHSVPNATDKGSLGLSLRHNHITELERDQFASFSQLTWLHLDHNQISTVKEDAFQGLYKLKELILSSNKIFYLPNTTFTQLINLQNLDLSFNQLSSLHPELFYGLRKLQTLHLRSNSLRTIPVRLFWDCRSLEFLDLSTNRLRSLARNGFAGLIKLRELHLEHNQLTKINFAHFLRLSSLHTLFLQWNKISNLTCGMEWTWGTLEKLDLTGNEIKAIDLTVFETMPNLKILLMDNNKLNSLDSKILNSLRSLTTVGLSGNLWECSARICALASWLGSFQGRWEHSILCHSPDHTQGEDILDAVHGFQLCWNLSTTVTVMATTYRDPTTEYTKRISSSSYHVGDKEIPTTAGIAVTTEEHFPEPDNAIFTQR

| Substance | Kd (LRRTM2) | Kd (HA-LRRTM2) |
| --- | --- | --- |
| Neurexin-1beta(-S4) (from UniProt P58400) | 7 nM and 5.8 nM | – |
| Nrx1β(−S4)-Fc (Fc fusion) | – | 19.9 nM |
